Test results published in patent publication US20040123344A1, “Novel gene encoding an f-box protein which regulates leaf longevity in arabidopsis thaliana and mutant gene thereof” (priority 2000, published 2004).

Columns and labels:
[1] = molecular target: T1, ASK2(1-172) (Arabidopsis thaliana, UniProt Q9FHW7); experiment: Yeast two-hybrid assay with ASK2; format: cell-based; details: HF7c yeast
T1 construct: the plasmid pGAD424-ASK2(1-172)[4] was constructed by inserting a BamHI/PstI fragment of pGTE-ASK2(1-172) into pGAD424; expressed in transfected cells; host or cells: Saccharomyces cerevisiae HF7c
T1 sequence (Q9FHW7 1-171): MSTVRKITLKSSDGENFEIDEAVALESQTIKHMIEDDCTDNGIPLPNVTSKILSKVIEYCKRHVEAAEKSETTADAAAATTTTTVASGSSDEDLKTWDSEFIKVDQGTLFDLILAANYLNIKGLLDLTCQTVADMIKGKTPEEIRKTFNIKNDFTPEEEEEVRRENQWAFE
Description: As expression vectors of expressing GAL4 DNA binding domain (GAL4-BD) and ORE9 fusion protein, plasmids pGBT9-ORE9 (1-49) and pGBT9-ORE9 (50-693) were constructed. The plasmid pGBT9-ORE9 expresses a fragment of ORE9 containing N-terminal 1-49th amino acids corresponding to an F-box region of ORE9, and the plasmid pGBT9-ORE9 (50-693) expresses a fragment of ORE9 containing 50-693th amino acids from which the F-box region was removed.
First, the gene encoding the ORE9 (1-49) fragment was amplified by PCR using a primer represented by SEQ ID NO: 10 and SEQ ID NO: 11, and then inserted into BamHI and PstI restriction enzyme sites of pGBT9 (Clontech, USA) containing a 4-BD gene and a tryptophan auxotrophic selection marker gene (TRP1), thereby constructing the plasmid pGBT9-ORE9 (1-49). Similarly, the plasmid pGBT 9-ORE9 (50-693) was constructed, which expresses an ORE9 (50-693) fragment and a GAL4-BD fusion protein. In this case, oligonucletides represented by SEQ ID NO: 12 and SEQ ID NO: 13 were used as PCR primers to amplify the gene encoding the ORE9 (50-693) fragment. […]

[2] = molecular target: T2, GST-ASK1 fusion protein (Arabidopsis thaliana, UniProt Q39255); experiment: In vitro binding assay with GST-ASK1 fusion protein; details: 35S-labeled in vitro translation product; glutathione beads; GST as negative control
T2 construct: made in house; host or cells: Escherichia coli BL21(DE3) pLysS
T2 sequence (Q39255 1-160): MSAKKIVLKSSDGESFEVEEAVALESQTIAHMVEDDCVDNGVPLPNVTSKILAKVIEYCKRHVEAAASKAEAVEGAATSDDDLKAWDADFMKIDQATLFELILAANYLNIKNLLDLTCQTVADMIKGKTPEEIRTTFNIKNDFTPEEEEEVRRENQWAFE
Description: In order to examine that ORE9 protein or derivatives thereof directly bind with ASK1, a GST-ASK1 fusion protein and a ^35S-labeled ORE9 protein produced by in vitro translation were subjected to in vitro binding assay. To obtain a glutathione S-transferase (GST) protein and a GST-ASK1 fusion protein, a vector pGEX (APBiotech, Co.) and a vector pGEX-ASK1 were constructed, which express the above proteins, respectively. Artificial sequences represented by SEQ ID NO: 14 and SEQ ID NO: 15 were used as PCR primers to amplify a gene encoding the ASK1 fragment. The resulting PCR product was digested with EcoRI and NcoI restriction enzymes, and inserted into the restriction enzyme sites of the pGEX vector. Escherichia coli BL21(DE3) pLysS was transformed with the resulting two vectors, and GST and GST-ASK1 fusion proteins were expressed. The GST and GST-ASK1 fusion proteins were purified by chromatography with glutathione-Sepharose 4B beads. The purified proteins was subjected to electrophoresis with SDS-polyacryamide gets, dyed with Coomassie blue, and measured for their amount. GST and GST-ASK1 fusion proteins of the same amount were added to glutathione beads, which had been previously washed with 10-fold volume of B buffer (20 mM […], pH 7.6, 150 mM sodium chloride, 10% glycerol, 0.5% NP-40, 1 mM DTT) three times. Then, the resulting proteins were adsorbed 4° C. for one hour using a rotating mixer. The provided beads were washed with 1 ml B buffer three times, and then stored in a state where the ratio of slurries relative to B buffer is 50%.
Meanwhile, a radioactivity-labeled ORE9 (1-693), the mutant type ore9 and ORE9 derivatives (1-327 and 50-693) were prepared using the in vitro transcription/translation system (Promega, USA) and [^35S]-methionine (DuPont NEN, USA). The proteins were quantitatively analyzed with SDS-PAGE and BAS radioanalytic imaging system (Japan). Then, the respective ^35S-labeled translation products of the same amount were mixed with 60 μl GST-adsorbed beads or GST-ASK1 fusion protein-absorbed beads, contained in 1 ml GB buffer (final concentration: 20 mM Tris-HCl, pH 7.5, 0.15% NP-40, 150 mM NaCl, 1 mM EDTA). The resulting beads were cultured in a rotating mixer at 4° C. for two hours, and then washed with 1 ml GB buffer four times. The washed beads were added with 30 μl of 2×SDS sample solutions, boiled for three minutes and then isolated with SDS-PAGE. The resulting gels were dried to dryness, and then exposed to X-ray film.

B1: ore9: mutant protein with early translation termination, 8 LRRs, SEQ ID NO: 3 (protein, listed as Arabidopsis thaliana)
chain: MASTTLSDLPDVILSTISSLVSDSRARNSLSLVSHKFLALERSTRSHLTIRGNARDLSLVPDCFRSISHLDLSFLSPWGHTLLASLPIDHQNLLALRLKFCFPFVESLNVYTRSPSSLELLLPQWPRIRHIKLLRWHQRASQIPTGGDFVPIFEHCGGFLESLDLSNFYHWTEDLPPVLLRYADVAARLTRLDLLTASFTEGYKSSEIVSITKSCPNLKTFRVACTFDPRYFEFVGDETLSAVATSSPKLTLLHMVDTASLANPRAIPGTEAGDSAVTAGTLIEVFSGLPNLEELVLDVGKDVKHSGVALEALNSKCKKLRVLKLG
binding with ASK2 in yeast two-hybrid assay [1]: didn't bind to each other | binding (co-precipitation) with GST-ASK1 [2]: co-precipitated with the GST-ASK1 fusion protein
